# From patent US20230035798A1 (CAPELLA BIOSCIENCE, published 2023)
# Positions count from the first letter of the chain named.
# T1: membrane LIGHT W197A (human, UniProt O43557 1-240)
# T1 chain: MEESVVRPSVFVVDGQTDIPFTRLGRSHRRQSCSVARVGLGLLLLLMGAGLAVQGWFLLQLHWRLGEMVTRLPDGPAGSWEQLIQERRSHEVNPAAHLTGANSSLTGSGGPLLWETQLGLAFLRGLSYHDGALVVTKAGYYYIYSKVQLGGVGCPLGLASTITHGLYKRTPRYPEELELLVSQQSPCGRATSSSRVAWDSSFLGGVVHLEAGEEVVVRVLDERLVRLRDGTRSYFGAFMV
# T2: membrane LIGHT S192A (human, UniProt O43557 1-240)
# T2 chain: T1 chain with S192A, A197W
# T3: membrane LIGHT S194A (human, UniProt O43557 1-240)
# T3 chain: T1 chain with S194A, A197W
# T4: membrane LIGHT R195A (human, UniProt O43557 1-240)
# T4 chain: T1 chain with R195A, A197W
# T5: recombinant human soluble LIGHT, amino acids 74-240 (R&D Systems 664-LI-025) (human, UniProt O43557 74-240)
# T5 chain: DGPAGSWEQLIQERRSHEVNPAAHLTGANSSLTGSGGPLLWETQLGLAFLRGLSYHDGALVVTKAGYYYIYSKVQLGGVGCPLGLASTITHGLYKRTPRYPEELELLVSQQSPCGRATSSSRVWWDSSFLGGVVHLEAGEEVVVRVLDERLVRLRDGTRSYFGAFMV
# B1: 3A07 (antibody, human IgG4, V domains shown)
# VH: QVQLQQSGAELVRPGAPVTLSCKASDYTFTDSEIHWVKQTPVHGLEWIGEIDPETGGTAYNQKFKGKATLTADKSSSTAYMELRSLTSEDSAVYYCSRETDYFFDYWGQGTTLTVSS
# VL: ENVLTQSPAIMSASPGEKVTMTCSASSSVSYMYWYQQRPGSSPRLLIYDTSNLASGVPVRFSGSGSGTSYSLTISRMEAEDAATYYCQQWSSYPLTFGSGTKLEIK
# notes: chimeric human IgG4 (S-to-P, L-to-E at 248), human CL; also called Parental 3A07
# B2: 3B04 (antibody, human IgG4, V domains shown)
# VH: B1 VH with S7P, P17S, D26G, S32Y, I34M, G57D, N61S, L83F
# VL: DIQMTQTPASLSASVGETVTITCGASENIYGALNWYQRKQGKSPQLLIYGATNLADGMSSRFSGSGSGRQYSLKISSLHPDDFATYYCQNVLTTPWTFGGGTKLEIKR
# notes: chimeric: mouse variable domains on human IgG4 HC (S-to-P and L-to-E at 248) and human CL; also called Parental 3B04; 3B04 chimeric
# B3: 3D12 (antibody, human IgG4, V domains shown)
# VH: B1 VH with S7P, P17S
# VL: B2 VL with T7S, F83V, T93S
# notes: chimeric: mouse variable domains on human IgG4 HC (S-to-P and L-to-E at 248) and human CL; also called Parental 3D12; 3D12 chimeric
# B4: 3C10 (antibody, human IgG4, V domains shown)
# VH: B1 VH with Q1E, P17S
# VL: B1 VL with E1D, N2V, L4M, S7T, R38K, S99A, I105L
# notes: chimeric human IgG4 (S-to-P, L-to-E at 248), human CL; also called Parental 3C10
# B5: 3E09 (antibody, V domains shown)
# VH: EVQLVESGGGLVKPGGSLKLSCEASGFTFSDYYMYWVRQTPEKRLEWVAAIGDGGIYTYYADTVKGRFTISRDNAKNILYLQMSSLKSNDTAMYYCARGTGDGFAYWGQGTLVTVS
# VL: DIVLTQSPASLAVSLGQRATISCRASESVDSYGNSFMHWYQQKPGQPPKLLIYLASNLESGVPARFSGSGSRTDFTLTIDPVEADDAATYYCQQNNEDPYTFGGGTKLEIK
# notes: chimeric human IgG4 (S-to-P, L-to-E at 248), human CL; also called Parental 3E09
# B6: 2E08 (antibody, human IgG4, V domains shown)
# VH: QVQMKESGAELVRPGVSVKISCKGSGYTFTDYAIHWVKQSHAKTLEWIGVISTYYGDASYNQKFKGKATMTVDKSSSTAYMELARLTSDDSAIYYCARSRGEYGNYDAMDYWGQGTSVTVSS
# VL: DIVLTQSPASLAVSLGQRATISCKASQSVDYDGDSYMNWYQQKPGQPPKLLIYAASNLESGIPARFSGSGSGTDFTLNIHPVEEEDAATYYCQQSNEDPLTFGAGTKLELK
# notes: chimeric human IgG4 (S-to-P, L-to-E at 248), human CL; also called Parental 2E08
# B7: 2B11 (antibody, human IgG4, V domains shown)
# VH: B6 VH with Q1E, M4L, K5V, T44S, D89E
# VL: B5 VL with L54R, V62I, D80N, A87V, N95S
# notes: chimeric human IgG4 (S-to-P, L-to-E at 248), human CL; also called Parental 2B11
# Molecular target: T1, membrane LIGHT W197A
# Test: flow cytometry, transfected HEK293FF, mAb at EC50
# Protocol: (§1) The day of transfection the cells were seeded in a 24-well plate at 0.6×10⁶ cells/well. Lipofectamine 2000 (ThermoFisher scientific), 3 μl, was mixed with 50 μl OptiMEM medium (GIBCO) and then added to 50 μl Opti-MEM medium containing 3 ug plasmid DNA and incubated for 20 min at RT to form DNA-Lipofectamine 2000 complexes which were then added to the HEK293FF cells and incubated at 37° C., 5% CO₂ for 24 hours. For each construct, in duplicate, 0.60×10⁶ cells/well were used in a 96 well round bottom plate. Cells were centrifuged for 3 minutes at 300×g at 4° C., the supernatant discarded and the cells washed with 150 μl FACS buffer (0.5% FBS in phosphate buffered saline). This process was repeated 3 times. […] The wells were washed 3 times as above and 50 μl/well of goat anti-human IgG FITC (1:1500 dilution in FACS buffer, SIGMA F9512-2ML) or goat anti-mouse APC (1/500 dilution in FACS buffer, BDBioscience 550826), as appropriate, was added to the wells and incubated for 30 min at 4° C. protected from the light, with shaking. The cells were then washed as above, resuspended in 100 μl of FACS buffer and binding of the antibodies to the constructs was measured using flow cytometry and a total of 10,000 cells were acquired for each sample. Controls of buffer and secondary antibody only as well as HEK293FF non transfected cells were also used.
row,"binding, % of WT [%]",Binder
1,1,B1
2,1,B3
3,0,B4
4,1,B5
5,0,B6
6,0,B7

row,Binder,"binding, % of WT [%]"
1,B2,0

# Molecular target: T2, membrane LIGHT S192A
# Test: flow cytometry, transfected HEK293FF, mAb at EC50
# Protocol: as §1
row,"binding, % of WT [%]",Binder
1,41,B1
2,84,B3
3,35,B4
4,50,B5
5,122,B6
6,96,B7

row,Binder,"binding, % of WT [%]"
1,B2,88

# Molecular target: T3, membrane LIGHT S194A
# Test: flow cytometry, transfected HEK293FF, mAb at EC50
# Protocol: as §1
row,"binding, % of WT [%]",Binder
1,1,B1
2,2,B3
3,0,B4
4,1,B5
5,3,B6
6,0,B7

row,Binder,"binding, % of WT [%]"
1,B2,0

# Molecular target: T4, membrane LIGHT R195A
# Test: flow cytometry, transfected HEK293FF, mAb at EC50
# Protocol: as §1
row,"binding, % of WT [%]",Binder
1,15,B1
2,25,B3
3,6,B4
4,1,B5
5,43,B6
6,78,B7

row,Binder,"binding, % of WT [%]"
1,B2,1

# Molecular target: T6, membrane LIGHT without residues 81-84 (EL4-NC-LIGHT cells) (human, UniProt O43557 1-240)
# T6 sequence (O43557 other isoform, or with tags, fused parts or gaps): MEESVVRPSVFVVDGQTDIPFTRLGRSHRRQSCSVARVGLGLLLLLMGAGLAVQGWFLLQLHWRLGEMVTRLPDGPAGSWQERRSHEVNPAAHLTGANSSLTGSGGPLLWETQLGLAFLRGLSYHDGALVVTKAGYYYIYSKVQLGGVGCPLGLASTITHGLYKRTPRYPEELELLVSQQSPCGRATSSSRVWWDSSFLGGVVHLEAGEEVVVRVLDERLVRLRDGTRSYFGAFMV
# Test: cell-based or functional assay
row,"IC50, inhibition of IL-8 secretion from HT-29 cells (EL4-NC-LIGHT cells) [nM]",Binder
1,2,B1
2,0.1,B3
3,1.9,B4
4,1.8,B6
5,0.6,B7

row,Binder,"IC50, inhibition of IL-8 secretion from HT-29 cells (EL4-NC-LIGHT cells) [nM]"
1,B2,0.2

# Molecular target: T7, human LIGHT (TNFSF14), full length, membrane-bound (214E allele) (human, UniProt O43557 1-240)
# T7 construct: also called membrane LIGHT; human membrane LIGHT
# T7 sequence (O43557 whole entry K214E): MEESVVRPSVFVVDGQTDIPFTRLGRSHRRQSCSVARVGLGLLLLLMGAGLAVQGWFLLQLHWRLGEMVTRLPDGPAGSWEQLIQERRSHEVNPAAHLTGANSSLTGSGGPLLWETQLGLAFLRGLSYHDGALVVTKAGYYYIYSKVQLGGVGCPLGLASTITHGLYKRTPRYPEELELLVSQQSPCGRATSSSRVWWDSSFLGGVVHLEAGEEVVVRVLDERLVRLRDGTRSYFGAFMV
# Test: competition with biotin-LTβR-Fc, EL4-LIGHT cells, flow cytometry
# Protocol: (§2) Biotin-LTβR-Fc and biotin-HVEM-Fc were prepared using a kit purchased from ThermoFisher (EZ-Link NHS-LC-Biotin; cat. no. 21336) according to the manufacturer's instructions. […] The diluent used was FACS buffer. The cells were washed 3 times with FACS buffer and biotin-LTβR-Fc and biotin-HVEM-Fc binding detection to cells was performed with streptavidin-APC (1:400; BioLegend cat. No. 405207) for 30 min at 4° C. and fluorescence read in the RL-1 channel. The anti-HEL mAb 2A11 was utilised as a background control.
# (§3) The above experiment was repeated utilising LIGHT stably expressed on EL4-cells and the results depicted in Table 11B.
row,IC50 [nM],Binder
1,0.35,B1
2,0.19,B3
3,0.86,B4
4,38,B5
5,5.7,B6
6,0.36,B7

row,Binder,IC50 [nM]
1,B2,0.19

# Molecular target: T7, human LIGHT (TNFSF14), full length, …
# Test: competition with biotin-HVEM-Fc, EL4-LIGHT cells, flow cytometry
# Protocol: as §2, §3
row,IC50 [nM],Binder
1,0.32,B1
2,0.16,B3
3,0.8,B4
4,24.1,B5
5,4.3,B6
6,0.34,B7

row,Binder,IC50 [nM]
1,B2,0.13

# Molecular target: T7, human LIGHT (TNFSF14), full length, …
# Test: flow cytometry, EL4-LIGHT cells
# Protocol: The EC50 of the 7 mAbs were calculated from binding to EL4-LIGHT cells (Table 7) which represents a more accurate comparison of the EC50's than utilising transiently transfected LIGHT cells. […] Non-linear regression analysis was performed to determine the functional binding affinity measurement or EC50 for each mAb. A range of functional affinities was observed.
row,EC50 [nM],Binder
1,0.14,B1
2,0.2,B3
3,0.16,B4
4,8.1,B5
5,1.8,B6
6,0.3,B7

row,Binder,EC50 [nM]
1,B2,0.15

# Molecular target: T6, membrane LIGHT without residues 81-84 …
# Test: cell-based or functional assay
# Remark: another data set of the same source
row,"IC50, nM membrane LIGHT (IL-8 release from HT-29 cells) [nM]",Binder
1,2,B1
2,0.1,B3
3,1.9,B4
4,1.8,B6
5,0.55,B7

row,Binder,"IC50, nM membrane LIGHT (IL-8 release from HT-29 cells) [nM]"
1,B2,0.15

# Molecular target: T5, recombinant human soluble LIGHT, amino …
# Test: cell-based or functional assay
row,"IC50, nM soluble LIGHT (5 ng/ml; IL-8 release from HT-29 cells) [nM]",Binder
1,> 100,B1
2,3.4,B3
3,> 100,B4
4,> 100,B6
5,47,B7

row,Binder,"IC50, nM soluble LIGHT (5 ng/ml; IL-8 release from HT-29 cells) [nM]"
1,B2,6.5
